In the supplement of paper PMC9112550, “Optimization of the antimicrobial peptide Bac7 by deep mutational scanning” (BMC Biology, 2022):

tested on: Escherichia coli TOP10; assay: shrunken log2 fold change of peptide-encoding DNA abundance (4.5 h post-induction vs induction); higher = less antimicrobial activity (less host growth inhibition); conditions: time post-induction: 4.5 h; library: site-saturation at positions 5, 18, 19, 20
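Further: peptides expressed intracellularly from a pBAD plasmid library in pooled LB shake-flask culture, induced with 0.3% L-arabinose, DNA abundance read by NGS, three biological replicates, DESeq2 with apeglm shrinkage.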

Going from RRIRCRPPRLPRPRPRPKYSPRP to RRIRMRPPRLPRPRPRPNMVPRP, the “shrunken log2 fold change” value rises from -0.898 to -0.147.

RRIRQRPPRLPRPRPRPMFCPRP and RRIRLRPPRLPRPRPRPMNRPRP are within 0.2 log units of each other in “shrunken log2 fold change” value: 0.0313 for the first, -0.0112 for the second.

RRIRYRPPRLPRPRPRPHEQPRP and RRIRSRPPRLPRPRPRPNLGPRP are within 0.2 log units of each other in “shrunken log2 fold change” value: -0.0662 for the first, -0.0959 for the second.

RRIRCRPPRLPRPRPRPEISPRP and RRIRTRPPRLPRPRPRPGESPRP are within 0.2 log units of each other in “shrunken log2 fold change” value: -0.0399 for the first, -0.012 for the second.

RRIRSRPPRLPRPRPRPNKMPRP and RRIRLRPPRLPRPRPRPLDFPRP are within 0.2 log units of each other in “shrunken log2 fold change” value: -0.05 for the first, -0.162 for the second.

Compared with RRIRPRPPRLPRPRPRPFVWPRP, RRIRPRPPRLPRPRPRPPPIPRP is higher in “shrunken log2 fold change” value: -0.0428 for the first, 0.374 for the second.

RRIRNRPPRLPRPRPRPQICPRP and RRIRVRPPRLPRPRPRPLASPRP are within 0.2 log units of each other in “shrunken log2 fold change” value: -0.0199 for the first, -0.214 for the second.

First: RRIRYRPPRLPRPRPRPHQVPRP
Second: RRIRKRPPRLPRPRPRPIIQPRP
The “shrunken log2 fold change” value of the first is lower: -0.208 for the first, 0.0837 for the second.

Compared with RRIRCRPPRLPRPRPRPNPEPRP, RRIRLRPPRLPRPRPRPSFDPRP is lower in “shrunken log2 fold change” value: 0.448 for the first, -0.373 for the second.

Going from RRIRSRPPRLPRPRPRPFVRPRP to RRIRIRPPRLPRPRPRPRKCPRP, the “shrunken log2 fold change” value falls from 0.0631 to -0.599.

Compared with RRIRCRPPRLPRPRPRPGKWPRP, RRIRRRPPRLPRPRPRPNVIPRP is lower in “shrunken log2 fold change” value: 0.107 for the first, -0.265 for the second.

Going from RRIRSRPPRLPRPRPRPTITPRP to RRIRQRPPRLPRPRPRPMKPPRP, the “shrunken log2 fold change” value rises from -0.229 to -0.0268.

RRIRKRPPRLPRPRPRPRRIPRP and RRIRMRPPRLPRPRPRPMWGPRP are within 0.2 log units of each other in “shrunken log2 fold change” value: 0.339 for the first, 0.285 for the second.

Going from RRIRMRPPRLPRPRPRPVTMPRP to RRIRRRPPRLPRPRPRPQPTPRP, the “shrunken log2 fold change” value rises from 0.116 to 0.533.

First: RRIRSRPPRLPRPRPRPINPPRP
Second: RRIRMRPPRLPRPRPRPDWTPRP
The “shrunken log2 fold change” value of the first is lower: -0.447 for the first, 0.0113 for the second.

First: RRIRMRPPRLPRPRPRPIIAPRP
Second: RRIRVRPPRLPRPRPRPDCIPRP
The “shrunken log2 fold change” value of the first is higher: 0.0852 for the first, -0.161 for the second.

RRIRKRPPRLPRPRPRPHCFPRP and RRIRARPPRLPRPRPRPKHHPRP are within 0.2 log units of each other in “shrunken log2 fold change” value: 0.0684 for the first, -0.00948 for the second.

First: RRIRMRPPRLPRPRPRPLHDPRP
Second: RRIRRRPPRLPRPRPRPWRCPRP
The “shrunken log2 fold change” value of the first is higher: 0.487 for the first, 0.175 for the second.

First: RRIRVRPPRLPRPRPRPDLAPRP
Second: RRIRLRPPRLPRPRPRPSIKPRP
The “shrunken log2 fold change” value of the first is higher: 3.31 for the first, -0.684 for the second.

Compared with RRIRHRPPRLPRPRPRPSCSPRP, RRIRKRPPRLPRPRPRPVTWPRP is higher in “shrunken log2 fold change” value: -0.876 for the first, 0.0106 for the second.

First: RRIRDRPPRLPRPRPRPEAPPRP
Second: RRIRQRPPRLPRPRPRPRIVPRP
The “shrunken log2 fold change” value of the first is higher: 0.412 for the first, 0.01 for the second.

Going from RRIRMRPPRLPRPRPRPNACPRP to RRIRVRPPRLPRPRPRPQWTPRP, the “shrunken log2 fold change” value falls from 0.0451 to -0.17.

First: RRIRCRPPRLPRPRPRPPRMPRP
Second: RRIRCRPPRLPRPRPRPHAFPRP
The “shrunken log2 fold change” value of the first is higher: 0.671 for the first, -0.647 for the second.

Going from RRIRPRPPRLPRPRPRPVSMPRP to RRIRFRPPRLPRPRPRPKREPRP, the “shrunken log2 fold change” value falls from 1.41 to 0.0359.

Compared with RRIRNRPPRLPRPRPRPTATPRP, RRIRLRPPRLPRPRPRPCILPRP is lower in “shrunken log2 fold change” value: 0.433 for the first, -0.411 for the second.

RRIRWRPPRLPRPRPRPDCNPRP and RRIRNRPPRLPRPRPRPNTCPRP are within 0.2 log units of each other in “shrunken log2 fold change” value: -0.0173 for the first, -0.195 for the second.

RRIRNRPPRLPRPRPRPSVNPRP and RRIRPRPPRLPRPRPRPYQPPRP are within 0.2 log units of each other in “shrunken log2 fold change” value: -0.201 for the first, -0.125 for the second.

RRIRPRPPRLPRPRPRPQRYPRP and RRIRQRPPRLPRPRPRPKCDPRP are within 0.2 log units of each other in “shrunken log2 fold change” value: -0.0398 for the first, 0.151 for the second.

RRIRTRPPRLPRPRPRPAMSPRP and RRIRLRPPRLPRPRPRPFGAPRP are within 0.2 log units of each other in “shrunken log2 fold change” value: 0.00971 for the first, -0.0596 for the second.

Compared with RRIRRRPPRLPRPRPRPEFFPRP, RRIRMRPPRLPRPRPRPFDQPRP is lower in “shrunken log2 fold change” value: 0.216 for the first, 0.00237 for the second.

RRIRERPPRLPRPRPRPTGMPRP and RRIRFRPPRLPRPRPRPGVHPRP are within 0.2 log units of each other in “shrunken log2 fold change” value: -0.128 for the first, -0.0827 for the second.

Going from RRIRGRPPRLPRPRPRPSAPPRP to RRIRLRPPRLPRPRPRPYSVPRP, the “shrunken log2 fold change” value falls from 0.711 to 0.0375.

RRIRERPPRLPRPRPRPQACPRP and RRIRARPPRLPRPRPRPGLIPRP are within 0.2 log units of each other in “shrunken log2 fold change” value: -0.0746 for the first, 0.0698 for the second.

Compared with RRIRERPPRLPRPRPRPEHEPRP, RRIRARPPRLPRPRPRPLEEPRP is higher in “shrunken log2 fold change” value: -0.0139 for the first, 1.04 for the second.

RRIRVRPPRLPRPRPRPPMLPRP and RRIRTRPPRLPRPRPRPNGRPRP are within 0.2 log units of each other in “shrunken log2 fold change” value: -0.037 for the first, -0.0231 for the second.

Going from RRIRARPPRLPRPRPRPCRKPRP to RRIRDRPPRLPRPRPRPCGWPRP, the “shrunken log2 fold change” value rises from -0.232 to 0.335.

RRIRIRPPRLPRPRPRPRLAPRP and RRIRSRPPRLPRPRPRPRTLPRP are within 0.2 log units of each other in “shrunken log2 fold change” value: 0.237 for the first, 0.128 for the second.

For RRIRARPPRLPRPRPRPLPQPRP, the “shrunken log2 fold change” value was 0.64.
